{
  "source": "patent US20170333564A1",
  "about": "(UNIVERSITY OF ROCHESTER, published 2017)",
  "binders": {"B1": {"name": "P2, myr-KYCCSRK (hBVR-based peptide) (peptide)", "peptide": "Myristoyl-KYCCSRK", "modifications": "cysteine pairing not given here"}},
  "target": "IRK (IR β-chain) immunoprecipitated from HEK cell lysates (UniProt P06213 763-1382, limits assumed)",
  "sequence (P06213 763-1382 limits assumed)": "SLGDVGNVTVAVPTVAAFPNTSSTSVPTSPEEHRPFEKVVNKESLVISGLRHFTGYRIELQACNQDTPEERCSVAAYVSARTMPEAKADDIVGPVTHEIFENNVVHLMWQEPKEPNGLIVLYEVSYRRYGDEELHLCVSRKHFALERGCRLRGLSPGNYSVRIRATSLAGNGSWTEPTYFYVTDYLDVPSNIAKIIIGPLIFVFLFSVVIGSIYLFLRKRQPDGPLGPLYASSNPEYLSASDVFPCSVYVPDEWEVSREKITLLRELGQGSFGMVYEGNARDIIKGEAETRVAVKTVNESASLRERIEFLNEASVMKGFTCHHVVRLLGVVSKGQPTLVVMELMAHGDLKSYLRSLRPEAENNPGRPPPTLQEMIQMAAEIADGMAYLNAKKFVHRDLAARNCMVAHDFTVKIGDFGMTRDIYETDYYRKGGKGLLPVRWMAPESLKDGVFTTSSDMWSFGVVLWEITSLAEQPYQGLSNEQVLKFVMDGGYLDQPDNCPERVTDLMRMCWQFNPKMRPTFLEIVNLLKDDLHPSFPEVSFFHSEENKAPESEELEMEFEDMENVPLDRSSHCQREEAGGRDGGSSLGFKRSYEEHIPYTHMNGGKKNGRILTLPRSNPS",
  "experiment": "cell-based or functional assay",
  "note": "No end group written: not given here. *: point of attachment. Myristoyl = CCCCCCCCCCCCCC(=O)*",
  "data": [
    {"binder": "B1", "values": [
      {"measurement": "kinase activity of IRK immunoprecipitated from HEK cells treated with 40 µM myristoylated peptide for 15 minutes, IRS peptide substrate", "result": "~3", "unit": "fold"}
    ]}
  ]
}
